Experimental data: patent publication US20240034762A1 (YALE UNIVERSITY, published 2024)
Values belong to the binder of their own block, whether it stands above or below them.

Key:
[1] = target: T1, soluble extracellular domain of human α-Klotho (aa 1-980) fused to a 6xHis tag (human, UniProt Q9UEF7 34-980); assay: BLI, FGF23 variant on the sensor, sKLA as analyte
T1 construct: Secreted from HEK293 EBNA cells; also called sKLA; soluble α-Klotho
T1 sequence: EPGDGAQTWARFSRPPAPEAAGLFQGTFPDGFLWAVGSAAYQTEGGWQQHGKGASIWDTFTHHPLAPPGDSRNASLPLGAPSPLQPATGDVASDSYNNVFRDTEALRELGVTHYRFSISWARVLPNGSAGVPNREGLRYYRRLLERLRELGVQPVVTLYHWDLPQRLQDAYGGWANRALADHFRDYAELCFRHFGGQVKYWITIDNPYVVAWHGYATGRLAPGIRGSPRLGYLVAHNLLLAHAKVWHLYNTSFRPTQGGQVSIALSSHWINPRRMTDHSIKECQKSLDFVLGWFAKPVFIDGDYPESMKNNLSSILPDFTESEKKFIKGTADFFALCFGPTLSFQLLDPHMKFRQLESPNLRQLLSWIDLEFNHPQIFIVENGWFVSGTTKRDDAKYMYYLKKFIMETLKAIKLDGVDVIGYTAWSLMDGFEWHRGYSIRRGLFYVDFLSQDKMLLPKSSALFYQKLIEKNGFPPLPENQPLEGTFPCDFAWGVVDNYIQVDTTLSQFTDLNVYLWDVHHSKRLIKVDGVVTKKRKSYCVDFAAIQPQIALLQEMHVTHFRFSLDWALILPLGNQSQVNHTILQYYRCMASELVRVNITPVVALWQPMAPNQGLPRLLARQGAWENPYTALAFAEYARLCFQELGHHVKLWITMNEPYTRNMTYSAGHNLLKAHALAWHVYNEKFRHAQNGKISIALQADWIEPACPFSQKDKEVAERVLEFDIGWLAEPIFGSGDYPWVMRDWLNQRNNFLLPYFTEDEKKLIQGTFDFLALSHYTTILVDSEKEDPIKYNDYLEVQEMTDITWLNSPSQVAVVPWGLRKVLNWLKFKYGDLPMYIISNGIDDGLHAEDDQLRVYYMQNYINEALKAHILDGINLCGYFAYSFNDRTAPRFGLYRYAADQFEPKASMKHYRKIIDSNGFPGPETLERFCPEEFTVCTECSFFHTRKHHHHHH

[2] = target: T2, full-length human α-Klotho with a C-terminal HA-tag on HEK293 cells stably co-expressing FGFR1c (human, UniProt Q9UEF7 34-1012); assay: cell-based or functional assay
T2 sequence: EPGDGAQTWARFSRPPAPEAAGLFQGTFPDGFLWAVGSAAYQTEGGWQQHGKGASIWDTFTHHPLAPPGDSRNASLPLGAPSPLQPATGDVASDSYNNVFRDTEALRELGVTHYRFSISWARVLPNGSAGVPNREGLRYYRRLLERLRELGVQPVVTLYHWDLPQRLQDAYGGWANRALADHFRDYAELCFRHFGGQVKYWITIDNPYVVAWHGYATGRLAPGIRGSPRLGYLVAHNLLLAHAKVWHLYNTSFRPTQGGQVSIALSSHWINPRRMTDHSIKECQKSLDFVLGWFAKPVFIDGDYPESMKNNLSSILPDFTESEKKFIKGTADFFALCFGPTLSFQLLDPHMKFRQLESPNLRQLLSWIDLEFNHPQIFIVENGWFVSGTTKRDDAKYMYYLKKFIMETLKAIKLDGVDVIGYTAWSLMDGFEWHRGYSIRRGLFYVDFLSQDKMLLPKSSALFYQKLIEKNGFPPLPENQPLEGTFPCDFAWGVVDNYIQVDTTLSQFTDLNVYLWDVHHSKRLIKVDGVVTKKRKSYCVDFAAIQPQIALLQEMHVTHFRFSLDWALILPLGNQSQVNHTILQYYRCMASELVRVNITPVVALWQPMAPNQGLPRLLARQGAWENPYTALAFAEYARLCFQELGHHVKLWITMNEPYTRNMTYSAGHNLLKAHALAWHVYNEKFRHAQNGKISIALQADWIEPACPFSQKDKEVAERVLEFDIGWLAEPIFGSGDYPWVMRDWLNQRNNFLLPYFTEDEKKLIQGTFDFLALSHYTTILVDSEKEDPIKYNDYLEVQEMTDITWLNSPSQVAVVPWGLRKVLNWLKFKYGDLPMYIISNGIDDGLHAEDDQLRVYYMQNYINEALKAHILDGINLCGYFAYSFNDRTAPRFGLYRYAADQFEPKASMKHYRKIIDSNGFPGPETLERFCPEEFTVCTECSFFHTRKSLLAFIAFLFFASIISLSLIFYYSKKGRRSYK

B1: human FGF23 D188A/D222A double mutant (ligand)
chain: DYKDDDDKYPNASPLLGSSWGGLIHLYTATARNSYHLQIHKNGHVDGAPHQTIYSALMIRSEDAGFVVITGVMSRRYLCMDFRGNIFGSHYFDPENCRFQHQTLENGYDVYHSPQYHFLVSLGAAKAAFLPGMNPPPYSQFLSRRNEIPLIHFNTPIPRQHTQSAEDDSERAPLNVLKPRARMTPAPASCSQELPSAEDNSPMASAPLGVVRGGRVNTHAGGTGPEGCRPFAKFI
notes: also called D188A/D222A double mutations
binding result [1]: no binding (tested: sKLA 6.25 nM to 200 nM)

activation of MAPK response in HEK293 cells co-expressing FGFR1c and α-Klotho; ligand concentration at saturation [2]: 0.1 nM
B2: human FGF23-R2 (aa 25-179 fused to aa 212-243) (ligand)
chain: YPNASPLLGSSWGGLIHLYTATARNSYHLQIHKNGHVDGAPHQTIYSALMIRSEDAGFVVITGVMSRRYLCMDFRGNIFGSHYFDPENCRFQHQTLENGYDVYHSPQYHFLVSLGAAKAAFLPGMNPPPYSQFLSRRNEIPLIHFNTPIPRQHTQSAEDNSPMASDPLGVVRGGRVNTHAGGTGPEG

activation of MAPK response in HEK293 cells co-expressing FGFR1c and α-Klotho; ligand concentration at saturation [2]: 0.1 nM
B3: human FGF23-R1 (aa 25-205) expressed in E. coli (ligand)
chain: YPNASPLLGSSWGGLIHLYTATARNSYHLQIHKNGHVDGAPHQTIYSALMIRSEDAGFVVITGVMSRRYLCMDFRGNIFGSHYFDPENCRFQHQTLENGYDVYHSPQYHFLVSLGAAKAAFLPGMNPPPYSQFLSRRNEIPLIHFNTPIPRQHTQSAEDDSERDPLNVLKPRARMTPAPAS
